These substances were tested against retromer cargo-selective complex (CSC), trimer of VPS35, VPS29 and VPS26 (UniProt Q96QK1) (assay: ITC).

Substance	Kd [µM]	stoichiometry N	Kd of the second site (two-site model, one site fixed to 16.6 μM) [µM]
FN fragment of FAM21 (356-600) as used in ITC (domain or fragment)	11.5	0.32	–
R20-21 for ITC (FAM21 1278-1341, Trp, His6) (domain or fragment)	2.5 to 16.6	0.49	3
R21 for ITC (FAM21 1309-1341, Trp, His6) (domain or fragment)	16.6	0.82	–

The remaining substances from weak to strong by Kd, led by results:

Kd [µM]	stoichiometry N	Kd of the second site (two-site model, one site fixed to 16.6 μM) [µM]	Substance
6.8	0.39	–	R19-20 for ITC (FAM21 1250-1317, Trp, His6) (domain or fragment)
2.4	0.42	–	FC fragment of FAM21 (938-1341 without 1029-1047) as used in ITC (domain or fragment)

Target: retromer cargo-selective complex (CSC), trimer of VPS35, VPS29 and VPS26 (UniProt Q96QK1)
Assay: ITC
Remark: another data set of the same source

Kd [µM]	Substance
3.2	R20-21 for ITC (FAM21 1278-1341, Trp, His6) (domain or fragment)

Reference: paper PMC3374753
